Experimental findings from patent publication US20200317802A1 (Merck KGaA, published 2020) are described below.

The target of test [1] is T1, recombinant human ADAMTS5 (R&D Systems cat #2198-AD) (human, UniProt Q9UNA0 262-622, limits assumed).
T1 sequence: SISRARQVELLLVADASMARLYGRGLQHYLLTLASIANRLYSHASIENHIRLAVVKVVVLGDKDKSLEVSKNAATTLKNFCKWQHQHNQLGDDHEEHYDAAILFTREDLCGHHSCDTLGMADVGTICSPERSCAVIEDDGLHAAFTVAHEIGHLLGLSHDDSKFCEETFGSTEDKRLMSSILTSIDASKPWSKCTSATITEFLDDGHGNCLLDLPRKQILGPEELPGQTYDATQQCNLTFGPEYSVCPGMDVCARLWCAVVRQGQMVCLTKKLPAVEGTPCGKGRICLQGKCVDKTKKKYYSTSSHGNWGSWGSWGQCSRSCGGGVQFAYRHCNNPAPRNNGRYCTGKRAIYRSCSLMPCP
Nature of the test: cell-based or functional assay.

The target in test [2] is T1, recombinant human ADAMTS5 (R&D Systems …). Nature of the test: cell-based or functional assay. The source holds these as a separate data set.
Test [3] shares this target. Put plainly: binding ELISA, periplasmic extract on coated human ADAMTS5. The procedure: In a first step, periplasmic extracts were tested for binding to recombinant human ADAMTS5 by binding ELISA. In brief, recombinant human ADAMTS5 (R&D Systems, Minneapolis, US; cat #2198-AD) at a concentration of 1 μg/ml was coated on 384-well MaxiSorp plates (Nunc, Wiesbaden, Germany). Wells were blocked with a casein solution (1%). After addition of a 10-fold dilution of the periplasmic extracts, Nanobody binding was detected using a mouse anti-Flag-HRP conjugate (Sigma, St. Louis, US) and a subsequent enzymatic reaction in the presence of the substrate esTMB (3,3′,5,5′-tetramentylbenzidine) (SDT, Brussels, Belgium). Clones showing ELISA signals higher than the sum of the average signal of the irrelevant Nanobody controls and 3 times the standard deviation of the irrelevant Nanobody controls were considered to encode positive human ADAMTS5 binding Nanobodies.
(In general: In an ELISA, binding on a coated surface is turned into a signal by an enzyme label.)

B1: Nanobody 13E02 (VHH)
VHH: EVQLVESGGGLVQAGGSLRLSCVASGSIFSIDAMGWYRQAPGKERELVASVTTGASPNYGDSVTGRFTASRDRAKNALYLQMNSLKPEDTAVYYCNLIMTIPGGSQIMYWGQGTLVTVSS
As to B1, in test [1], the “FRET assay % inh, periplasmic extract” value came out at 99% and the “FRET assay vi (U/min), periplasmic extract” value (shortened to “FRET assay vi (U/min)”) was 0 U/min. Also, in test [2], the “Human AlphaLISA % inhibition” value was 100% and the “Human AlphaLISA IC50” value was 2.2 nM.

B2: Nanobody 7B11 (VHH)
VHH: EVQLVESGGGLVQPGGSLRLSCAASGSIFSINVMGWYRQAPGKQRELVAAIISGGRTNYADSVKGRFTISRDNSKNTVYLQMNSLRPEDTAVYYCNAEVDAGIYAYGYWGQGTLVTVSS
notes: tagged as tested (anti-Flag detection, IMAC); also called 07B11
As to B2, in test [1], the “FRET assay % inh, periplasmic extract” value was 90% and the “FRET assay vi (U/min)” value was found to be 2 U/min. In addition, in test [2], the “Human AlphaLISA % inhibition” value was found to be 100% and the “Human AlphaLISA IC50” value is 3.6 nM. For the same molecule, the “binding ELISA (OD 450 nm)” value in test [3] amounted to 0.368 OD 450 nm.

B3: Nanobody 2D12 (VHH)
VHH: EVQLVESGGGLVQAGDSLRLSCAASGRTFSTYFVGWFRQAPGKERDFVAAISRNGARTYYYDSVAGLFTISRDNAKNTVYLQMSSLKPEDTAVYYCAAARISPSDPSNEDGYDYWGQGTLVTVSS
notes: tagged as tested (anti-Flag detection, IMAC); also called 02D12
Take B3: in test [1], the “FRET assay % inh, periplasmic extract” value came out at 90% and the “FRET assay vi (U/min)” value stood at 2 U/min. In test [2], the “Human AlphaLISA % inhibition” value was 100% and the “Human AlphaLISA IC50” value was found to be 0.69 nM. For the same molecule, the “binding ELISA (OD 450 nm)” value in test [3] amounted to 1.35 OD 450 nm.

B4: Nanobody 3B03 (VHH)
VHH: EVQLVESGGDLVQPGGSLRLSCAASGSDVVVNDMGWYRQAPGKQRELVADITTGGRTNYADSVKGRFTISRDNVKNTVYLQMNSLKPEDTAVYYCNAQVGDSDDDVWYAYWGQGTLVTVSS
notes: tagged as tested (anti-Flag detection, IMAC); also called 03B03
Turning to B4, in test [1], the “FRET assay % inh, periplasmic extract” value worked out at 93% and the “FRET assay vi (U/min)” value came out at 2 U/min. In test [2], the “Human AlphaLISA % inhibition” value came to 100% and the “Human AlphaLISA IC50” value worked out at 12 nM. The “binding ELISA (OD 450 nm)” value in test [3] is 2.29 OD 450 nm.

B5: Nanobody 2A02 (VHH)
VHH: EVQLVESGGGLVQPGGSLRLSCAASRRTFSSYVMAWFRQAPGKEREFVAAISRSGDSTYYYDSLEGRFTISRDNAKNTVHLQMNSLKPEDTAVYICAASRAPSFRTIDAINYYDYWGQGTLVTVSS
notes: tagged as tested (anti-Flag detection, IMAC); also called 02A02
In the case of B5, in test [1], the “FRET assay % inh, periplasmic extract” value was 91% and the “FRET assay vi (U/min)” value amounted to 2 U/min. Moreover, in test [2], the “Human AlphaLISA % inhibition” value was determined as 99% and the “Human AlphaLISA IC50” value was 4.3 nM. For the same molecule, the “binding ELISA (OD 450 nm)” value in test [3] was 1.65 OD 450 nm.

B6: Nanobody 9A05 (VHH)
VHH: EVQLVESGGGFVQAGGSLRLSCAASRRTISSGTMGWFRQAPGKEREFVAAIRWSSGITFYPDSVEGRFTISGDNAKNTVSLQMNSLKPEDTAVYYCAADRSALRDPSFEVNYEYWGRGTLVTVSS
For the molecule B6, in test [1], the “FRET assay % inh, periplasmic extract” value came out at 113% and the “FRET assay vi (U/min)” value was -3 U/min. Further, in test [2], the “Human AlphaLISA % inhibition” value came out at 100% and the “Human AlphaLISA IC50” value stood at 0.32 nM.

B7: Nanobody 9D10 (VHH)
VHH: EVQLVESGGGLVQAGGSLRLSCAASGRALSSSIMGWFRQAPGKEREFVAAITWSGGRAYYADVSDFEKGRFTISRDNGKNTVNLQMKGLKPEDTAVYYCAAALAIPVTMSPHEYPYWGQGTLVTVSS
For B7, in test [1], the “FRET assay % inh, periplasmic extract” value was found to be 111% and the “FRET assay vi (U/min)” value is -2 U/min. In test [2], the “Human AlphaLISA % inhibition” value was found to be 100% and the “Human AlphaLISA IC50” value came out at 0.97 nM.

B8: Nanobody 2G01 (VHH)
VHH: EVQLVESGGGLVQAGGSLRLSCAASGRTTFSSYAMGWFRQAPGKERAFVATIWSGGLTVYADSAKGRFTISRDNAKNTVYLQMNSLRPEDTAVYYCAAEAVGTYYTPDGWTYWGQGTLVTVSS
notes: tagged as tested (anti-Flag detection, IMAC); also called 02G01
Take B8: in test [1], the “FRET assay % inh, periplasmic extract” value is 55% and the “FRET assay vi (U/min)” value was 10 U/min. In test [3], the “binding ELISA (OD 450 nm)” value was 1.71 OD 450 nm.

B9: Nanobody 2C10 (VHH)
VHH: EVQLVESGGGLVQAGGSLRLSCATSGFTFSPYYMGWFRQAPGKERDFVAAITRSRGTTYYLDSTEGRFTISRDNAKNTMYLQMNSLNPEDTAVYYCAAGRSPGDPSRTYLYEYWGQGTLVTVSS
notes: tagged as tested (anti-Flag detection, IMAC); also called 02C10
B9: in test [1], the “FRET assay % inh, periplasmic extract” value worked out at 90% and the “FRET assay vi (U/min)” value worked out at 2 U/min. Also, in test [2], the “Human AlphaLISA % inhibition” value was 100% and the “Human AlphaLISA IC50” value came to 0.45 nM. In test [3], the “binding ELISA (OD 450 nm)” value was found to be 1.63 OD 450 nm.

B10: Nanobody 3D02 (VHH)
VHH: EVQLVESGGGLVQAGASLRLSCATSGFTFSPYYMGWFRQAPGKERDFVAAISWSRGILYYTDSTEGRFTISRDNAKNTMYLQMDNLNPEDTAVYYCAASRSPGDPSRTYLYDYWGQGTLVTVSS
notes: tagged as tested (anti-Flag detection, IMAC); also called 03D02
As for B10, in test [1], the “FRET assay % inh, periplasmic extract” value was 111% and the “FRET assay vi (U/min)” value is -2 U/min. In test [2], the “Human AlphaLISA % inhibition” value worked out at 100% and the “Human AlphaLISA IC50” value stood at 0.22 nM. Besides, the “binding ELISA (OD 450 nm)” value in test [3] is 2.58 OD 450 nm.

B11: Nanobody 9D09 (VHH)
VHH: EVQLVESGGGLVQAGGSLRLSCAASGLTFSSYTMGWFRQAPGQEREFVSAISWNTFTTYYVDSVKDRFTVSRDNAKNTLYLRMNSLKPEDTAVYYCAAAGGSPRQHEPYEYRVWGQGTLVTVSS
In the case of B11, in test [1], the “FRET assay % inh, periplasmic extract” value turned out to be 102% and the “FRET assay vi (U/min)” value was 0 U/min. In test [2], the “Human AlphaLISA % inhibition” value was 100% and the “Human AlphaLISA IC50” value worked out at 2.6 nM.

B12: Nanobody 3F04 (VHH)
VHH: EVQLVESGGGSVQAGGSLRLSCVASGRYPMAWFRQAPGKEREFVAGVSWGGDRTYYADSVQGRFTVSRDYAKNTLYLQMNSLKPEDAAVYYCAGDPWGRLFRVKDNYSDWGQGTLVTVSS
notes: tagged as tested (anti-Flag detection, IMAC); also called 03F04
On to B12, for which, in test [1], the “FRET assay % inh, periplasmic extract” value was 8% and the “FRET assay vi (U/min)” value worked out at 19 U/min. In test [3], the “binding ELISA (OD 450 nm)” value worked out at 2.56 OD 450 nm.
